We go through six sequences from the DeepSol protein solubility set.

A short description of the data set: soluble on expression in E. coli; label from the status in PepcDB or PDB records.
In the case of “MSLARFFQPKKHSTLDTKHQPVTIERLDHQGSGLAFLHKKPLFVDGALPGEEVLIQLTENKSKYARGQLIKVLKPSAERVAPFCAHYAQCGGCDLQHLDRAGQIHHKQQALSQLMVKFAGQSLALSAPVCSDDQGYRRRARLSLMWDKKTQQLQLGFRRKQSKAIVNVTHCPVLEPSLNALLPDLNALLSEWSQPERLGHVELVKGDNTRVLVLRHLGALIEQDQQRLTDFASQNQLTLYLMLEAGELQHVQGEAPYCEETGSRLSFLPSHFIQVNRAVNQHMVVQALNWLEVSPQERVLDLFCGLGNFTLPLAKQAQAVVGVEGVDEMVQHATHNAKLNQINNVAFYQANLEQDMTSASWAQQKFAKVLLDPARAGAEGIVDQLSALGAKRVVYVSCNPATLARDSQSLLSQGFRLEKLGMLDMFPHTSHLESMALFVKKGEGHHHHHH”, the “soluble on expression in E. coli” value was “soluble”.

Consider “MSLATEQIQHIAIVGCVHGKYREMYRQLSEYEKSTGKEISFVICTGDMQTLRYEADLVYLKVPPKYKQMGDFHLYYEGKEKAPYLTLFIGGNHESSNVLLHLYNGGFVCFNMYYLGVCSCININGLRIVGVSGIYKSFDEKKPYTYPPSPNDVVSLFHTRNYVIQMLSNLSQSSQIDISLSHDWPQGIVMKGNYKQLYRFQPGFKKDGASLGSPINKVILNTLKPKYWISGHMHCEYHAEEGPTHFIALGKIGYKNAISYLDLPLKQKTDLEYDKDWVCNLIMTWPAFSNKAQFPDLSYSISELLSKRTKELDKKIIELWEKYIGLKIIYDSDTFDIQFTSRRFYIEKIYNELNINEGHHHHHH”, for which the “soluble on expression in E. coli” value is given as “soluble”.

In the case of “MSLATSRTVLPDDLLINASDEVLTRQDLVLTALGRRPADRLLRVGRLLDVHSRTWLDDQEIVIKGRRIAYVGPAGSYAGEVNERFSEPDLAAVPGFGEAHKHIESSHLTPEWEAALVMPHGVTWTCEASHEFSNVNGARNLEFWLEARRRGSPMKIFPLPGSAVPPTAYEWGGGWFGYDEQKAFLSESLMVAGLDEVMDWPSISDPGNPSYDRLWGMIGATFEQRGVVEGHGAGLRDMASINAFAAAGLASDHEGWFLDEIWQKLLHGLFIELRPHSLPEVIRGLIDKGLTDWSQIALVTDDRSASDTLKIGATDHNVRLAIENGLAPETAIQCVTLNPARHMRLTPWVGSIAPGRFADIVLLSDVASLSIEKVWADGRPASEGATFIGVRPEIDWPQWATRTVKIDRTVTADDFRIEAPPNRTTVNAALLRPFHWHDDFITMELPVEEGAVQRDAARNVTKFSIVDRFSGEARVSRMFWLGTGPRTPETALASTLGHDKHNIWTVGSSDEAMAISVNALNEQQGGWVLVSGGKILARVRYEVGGLMTARSAEALDAEMQALYAAGAGIDWMYEPTFSPRWWPGFPERLSFATLTCSPWRWVLVAPSELAPDGFVNVLTGKTHPIVWEGHHHHHH”, the “soluble on expression in E. coli” value is “soluble”.

On to “MSLATSYVGTVAGEKITTKEFKYFLGYVKIQMENDAQLQDQASKEAFWDSKIEGVDAKELAKQKALDSCKEFKIQLLKARERGLFLNDKDMQEIENSITTLLNQMAQFDQAAKNTGVEVMSAEEMLKDTYGVTIQEYKEILKDLRLVLKLVEDEQKNITITEEELRNRYNENKDVFDKITVRHIIFYTINPKTDVSLSEDAKKKAYENAKKALERANKGEDMEALALELSEDSGVEGNKGILEINSLKVNEPKLSNLVKWAYEHKVGDTDIVETGYGYHVVKIEKRTEYKDVVQNVKNVILSERYNQILGQWKQEPQYDLKKNEFALKRIKEGHHHHHH”, for which the “soluble on expression in E. coli” value is given as “soluble”.

Turning to “MSLDAAAATLPRKSGSVDRLVRLAEADMAGVNRLITDRMQSDVAIIPALAEHLIAAGGKRLRPLMTVAAARLAGADNDHFQKLAAAVEFIHTATLLHDDVVDGSQLRRGKVAAHLIWGGAQSVLVGDFLFARAFELMVETNSMKALEILARASRVIAEGEVLQLMRSHDLNLSQAVYLEIIQAKTAELFAAASEAGAVSAGVDVAESEALRDYGLNLGLAFQLADDALDYGGATETLGKNAGDDFREGKATLPLLLAIARSGPREAEFWERAIGRREQTEADFRRARELIIGSGALDATLDLAADYADKAKAALAMFPANDWREALEELADFAVSRRAEGHHHHHH”, the “soluble on expression in E. coli” value is given as “soluble”.

“MSLDAISAATHSDPYFYYTRLRARGGLTYDCALRLWVASSAAAVAAVLDHPACQVRPSTEPVPQAIAGRPAGQLFGRLMRMNDGPRQRCPRAAIEPALQGLCTAGLETHLARWQPALAGPACAADLQRWQFVLPVALLASLLGVPAEQCETLARRTGEFVACFSPLSDQPRLQAADRAALELDAQMQALVQAPQHSPLLRQILDRSGELAPADLRANLAGLLAQTHDACAGLVGNSLVALLAAPAMQQRLRQEPGLLGDWLLERQRLDPPVQNTRRFVTAPCTVHGVELQAGETILVLLAAANQDPALAAITGSNPAHQGFSFGAGAHRCPGRELALGIVRCLLHALLQGPGLDALALDWQYQASVNGRIPLFSDRGEAEGHHHHHH”: the “soluble on expression in E. coli” value was “not soluble”.
